Measured values as given in the FLAb antibody collection (doi:10.7554/elife.23156).

B1: scFv; the commonest letter at each place (parent)
chain 1: EVKLDETGGGLVQPGRPMKLSCVASGFTFSDYWMNWVRQSPEKGLEWVAQIRNKPYNYETYYSDSVKGRFTISRDDSKSSVYLQMNNLRVEDMGIYYCTGSYYGMDYWGQGTSVTVS
chain 2: DVVMTQTPLSLPVSLGDQASISCRSSQSLVHSNGNTYLRWYLQKPGQSPKVLIYKVSNRFSGVPDRFSGSGSGTDFTLKISRVEAEDLGVYFCSQSTHVPWTFGGGTKLEIK

Columns and labels:
fluorescein = variants of: B1; assay: Kd (Tite-Seq); settings: with fluorescein; format: scFv 4-4-20, heavy + light
[1] = variants of: B1; assay: yeast surface expression (ratio to wild type); higher = more expressed; settings: format: scFv 4-4-20, heavy + light

Row | Variant | Kd (fluorescein) [µM] | yeast surface expression [1]
1 | chain 1 Y32W W33F | ≥ 10 | 0.941
2 | chain 1 Y102A M105N | 0.0113 | 1.14
3 | chain 1 S30A W36H | ≥ 10 | 0.457
4 | chain 1 D31S Y32C | 6.61 | 0.648
5 | chain 1 Y102K | 0.021 | 0.81
6 | chain 1 Y102I | 0.00279 | 1.16
7 | chain 1 Y102A | 0.00162 | 1.17
8 | chain 1 T28I D31H | 0.00128 | 0.699
9 | chain 1 S101W Y103A | ≥ 10 | 0.685
10 | chain 1 F29D Y32C | ≥ 10 | 0.924
11 | chain 1 S30G | 0.00067 | 1.12
12 | chain 1 S30E | 0.000962 | 0.948
13 | chain 1 D31A Y32K M34C | ≥ 10 | 1.1
14 | chain 1 W33Q W36T | ≥ 10 | 0.706
15 | chain 1 Y107T | 0.000784 | 0.965
16 | chain 1 G109H | ≥ 10 | 0.268
17 | chain 1 Y32L V37R | ≥ 10 | 0.0981
18 | chain 1 G104I D106N G109F | 0.345 | 0.094
19 | chain 1 Y103D G109R | ≥ 10 | 0.269
20 | chain 1 Y103W G109A | ≥ 10 | 0.557
21 | chain 1 M105K D106E | 3.2 | 1.01
22 | chain 1 Y103M G104M M105L | ≥ 10 | 0.562
23 | chain 1 F29A M34G | ≥ 10 | 0.656
24 | chain 1 G100V Y107H | ≥ 10 | 0.772

Row | Variant | Kd (fluorescein) [µM] | yeast surface expression [1]
25 | chain 1 T28S Y32S | 0.266 | 0.966
26 | chain 1 Y103N D106N W108T | ≥ 10 | 0.736
27 | chain 1 W33G M34I | ≥ 10 | 0.433
28 | chain 1 G104V Y107K | ≥ 10 | 0.324
29 | chain 1 Y32S W33S | ≥ 10 | 0.838
30 | chain 1 Y102P M105K | ≥ 10 | 0.473
31 | chain 1 T28I S30M | 0.00104 | 0.769
32 | chain 1 S30V M34H | ≥ 10 | 0.497
33 | chain 1 Y32G W33A | ≥ 10 | 0.708
34 | chain 1 T28A F29V | 0.00638 | 1.02
35 | chain 1 T28A F29Y | 0.0015 | 1.06
36 | chain 1 S30Q D31H Y32N | ≥ 10 | 0.857
37 | chain 1 M105H Y107G | ≥ 10 | 0.412
38 | chain 1 G104L D106G | ≥ 10 | 0.169
39 | chain 1 D106R Y107D | ≥ 10 | 0.462
40 | chain 1 S101Y | ≥ 10 | 0.659
41 | chain 1 S101L Y103Q | ≥ 10 | 0.786
42 | chain 1 T28L S30N | 0.00122 | 0.861
43 | chain 1 G100R W108C | ≥ 10 | 0.246
44 | chain 1 F29A S30V | 3.94 | 0.758
45 | chain 1 Y107T W108A | 0.00215 | 0.476
46 | chain 1 G100I S101Y Y107A | ≥ 10 | 0.466
47 | chain 1 F29Y N35A | ≥ 10 | 0.842
48 | chain 1 Y102S D106W | ≥ 10 | 0.385

Row | Variant | Kd (fluorescein) [µM] | yeast surface expression [1]
49 | chain 1 D31C W36G | ≥ 10 | 0.738
50 | chain 1 Y107R G109H | ≥ 10 | 0.277
51 | chain 1 M105F Y107S G109S | ≥ 10 | 0.81
52 | chain 1 S30K Y32S M34V | ≥ 10 | 0.837
53 | chain 1 D31P N35F | 0.0302 | 0.944
54 | chain 1 G104Y M105N | ≥ 10 | 1.13
55 | chain 1 T28S S30I | 0.00708 | 0.741
56 | chain 1 G104Y W108L | ≥ 10 | 0.212
57 | chain 1 T28Y S30P | 0.000804 | 1.08
58 | chain 1 Y32H | 0.0265 | 1.03
59 | chain 1 Y32W | ≥ 10 | 0.805
60 | chain 1 Y102V W108Y | 0.000504 | 0.855
61 | chain 1 F29A D31P | ≥ 10 | 0.922
62 | chain 1 F29I N35R | ≥ 10 | 0.852
63 | chain 1 G100Y Y107W | ≥ 10 | 0.468
64 | chain 1 W33C N35W | 5.37 | 0.456
65 | chain 1 Y103L M105G | ≥ 10 | 1.02
66 | chain 1 Y103L M105I | ≥ 10 | 0.741
67 | chain 1 S101Q G104R | ≥ 10 | 0.384
68 | chain 1 Y102C M105P | ≥ 10 | 0.69
69 | chain 1 G100D G109H | ≥ 10 | 0.602
70 | chain 1 G100D G109N | ≥ 10 | 0.118
71 | chain 1 G100W G109S | ≥ 10 | 0.43
72 | chain 1 M34S | 0.151 | 0.652

Row | Variant | Kd (fluorescein) [µM] | yeast surface expression [1]
73 | chain 1 M34R | 9.5 | 0.851
74 | chain 1 T28R Y32H | 0.0259 | 1
75 | chain 1 Y102Q G104L W108S | ≥ 10 | 0.348
76 | chain 1 M34S W36A | ≥ 10 | 0.437
77 | chain 1 Y107L G109V | ≥ 10 | 0.298
78 | chain 1 G100I Y102M | ≥ 10 | 1.08
79 | chain 1 G100S M105R | 0.311 | 0.929
80 | chain 1 F29L V37P | ≥ 10 | 0.419
81 | chain 1 T28Q M34P | ≥ 10 | 0.676
82 | chain 1 T28S V37Q | 0.00184 | 0.71
83 | chain 1 D31L W33D | ≥ 10 | 0.81
84 | chain 1 S30C D31F | 5.96 | 0.592
85 | chain 1 G100W Y102N D106L | ≥ 10 | 0.286
86 | chain 1 G100F G109N | ≥ 10 | 0.41
87 | chain 1 W33K W36Y | ≥ 10 | 0.396
88 | chain 1 Y32T V37A | ≥ 10 | 0.65
89 | chain 1 S30Q V37E | ≥ 10 | 0.892
90 | chain 1 W33T N35Q | ≥ 10 | 0.887
91 | chain 1 T28N Y32G | 0.345 | 1.19
92 | chain 1 F29S N35Y | 0.327 | 1.05
93 | chain 1 F29N S30T M34E | 0.311 | 1.73
94 | chain 1 G104H | ≥ 10 | 0.716
95 | chain 1 G104Q | ≥ 10 | 0.824
96 | chain 1 G104E | ≥ 10 | 1.04

Row | Variant | Kd (fluorescein) [µM] | yeast surface expression [1]
97 | chain 1 M34G N35H | ≥ 10 | 0.394
98 | chain 1 S101D Y103A | ≥ 10 | 1.07
99 | chain 1 G100D S101I | ≥ 10 | 0.0999
100 | chain 1 Y103P Y107D | ≥ 10 | 0.617
101 | chain 1 S101W Y103R G104S | ≥ 10 | 0.468
102 | chain 1 Y32P W33I | ≥ 10 | 0.908
103 | chain 1 Y102C G104H | ≥ 10 | 0.609
104 | chain 1 T28N N35V | ≥ 10 | 0.666
105 | chain 1 G100E G104I | ≥ 10 | 0.281
106 | chain 1 T28V D31M | 0.00444 | 0.587
107 | chain 1 D106G | ≥ 10 | 0.655
108 | chain 1 D106C | 2.17 | 0.955
109 | chain 1 D106Y | ≥ 10 | 0.51
110 | chain 1 W108S G109R | ≥ 10 | 0.307
111 | chain 1 T28Q Y32S | 0.0896 | 0.926
112 | chain 1 D31S V37N | ≥ 10 | 0.629
113 | chain 1 S101Y M105T | ≥ 10 | 0.44
114 | chain 1 Y103D Y107C | ≥ 10 | 0.646
115 | chain 1 G100D M105Y | ≥ 10 | 0.228
116 | chain 1 S101H M105V | ≥ 10 | 0.592
